We go through 1 molecule from patent publication US20140193417A1 (LUDWIG INSTITUTE FOR CANCER RESEARCH, published 2014).

The assay has as its target T1, sodium-dependent phosphate transport protein 2b (NaPi2b, SLC34A2), human, endogenous (human, UniProt O95436 1-690).
T1 construct: whole, on cells; Naturally expressed, N-glycosylated membrane protein of human cancer cell lines (OVCAR-3, SK-RC-18 and others) and tissues; used on intact cells (MHA, flow cytometry), in cell or tissue lysates (Western blot, immunoprecipitation) and in tissue sections; also called MX35 antigen; NaPi2b/MX35
T1 sequence (looked up): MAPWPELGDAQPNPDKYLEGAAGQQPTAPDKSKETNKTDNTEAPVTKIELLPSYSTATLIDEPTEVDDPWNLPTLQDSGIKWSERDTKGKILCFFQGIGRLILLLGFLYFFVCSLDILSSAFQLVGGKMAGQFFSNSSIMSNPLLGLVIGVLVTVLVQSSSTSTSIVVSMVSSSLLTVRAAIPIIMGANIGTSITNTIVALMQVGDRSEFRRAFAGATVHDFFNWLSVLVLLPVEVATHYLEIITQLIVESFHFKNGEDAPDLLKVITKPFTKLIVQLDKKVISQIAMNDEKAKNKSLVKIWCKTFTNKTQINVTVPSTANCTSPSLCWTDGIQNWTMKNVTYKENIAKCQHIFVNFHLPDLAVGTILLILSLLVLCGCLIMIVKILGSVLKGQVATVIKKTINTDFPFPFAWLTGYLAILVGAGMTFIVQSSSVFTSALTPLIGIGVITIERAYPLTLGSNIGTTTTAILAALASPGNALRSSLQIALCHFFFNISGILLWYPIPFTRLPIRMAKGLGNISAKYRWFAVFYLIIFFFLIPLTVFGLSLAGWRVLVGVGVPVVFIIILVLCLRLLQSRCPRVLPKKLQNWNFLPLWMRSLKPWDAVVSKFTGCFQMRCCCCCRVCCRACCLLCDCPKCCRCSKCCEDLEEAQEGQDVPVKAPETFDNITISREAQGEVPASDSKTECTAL
Put plainly: flow cytometry on SK-RC-18 cells, 20 ug/ml antibody. The procedure:
The binding efficacy of humanized MX35 antibody, synthesized and purified as described above, was compared with the murine version of the MX35 antibody, using fluorescein isothiocyanate—FITC—marker to assess the specific binding to different cells lines in flow cytometry. The cell lines listed in TABLE 4 were trypsinized, adjusted to a concentration of 2.5×10⁵ cells and distributed in 1.5 mL test tubes. After centrifugation the pellet was resuspended in 100 uL of primary antibody (either murine MX35, humanized MX35, hu3S193 or Zenapax®) diluted in the same culture medium used to cultivate the cells in the concentration of 20 μg/ml. In the case of controls “cells only” and FITC-conjugates, the cells were resuspended in 100 μL of medium culture. The mixtures were incubated for 1 h at 4° C. and then washed twice with 200 μL of phosphate buffered saline. The cells were resuspended in 100 μL of secondary antibody-FITC conjugated, either murine or human depending on the MX35 antibody version used. The control “cells only” tube received medium culture only. […] Staining of the cells with the fluorescent probes was measured in a fluid stream in the flow cytometry Guava® ExpressPro (Guava EasyCyte Mini System). For each individual experiment 10,000 events were acquired and counted.

B1: humanized MX35 (huMX35) monoclonal antibody (antibody, V domains shown)
VH: QVQLVQSGAEVVKPGASVKMSCKASGYTFTGYNIHWVKQAPGQGLEWIGAIYPGNGDTSYKQKFRGRATLTADTSTSTVYMELSSLRSEDSAVYYCARGETARATFAYWGQGTLVTVSS
VL: DIQMTQSPSSLSASVGDRVTITCSASQDIGNFLNWYQQKPGKTVKVLIYYTSSLYSGVPSRFSGSGSGTDYTLTISSLQPEDFATYYCQQYSKLPLTFGQGTKLELKR
notes: Produced in Per.C6 cells, protein A purified; also called Human MX35; humanized MX35 antibody
In the case of B1, the binding result is reported as “binds”.
